{"source": "paper doi:10.1101/857136", "about": "“Structural characterization of an intermediate reveals a unified mechanism for the CLC Cl^−/H^+ transport cycle” (bioRxiv, 2019)", "target": "the molecule itself", "assay": "crystal structure; lipidic cubic phase (monoolein with 10% cholesterol), without any antibody Fab fragment; 16 °C; 100 mM Tris pH 8.5, 100 mM sodium malonate, 30% PEG 400, 2.5% MPD; 2.6 Å", "data": [{"protein": "CLC-ec1 QQQ mutant (E148Q/E203Q/E113Q) (natural protein, CLC-ec1, prokaryotic CLC Cl-/H+ exchange transporter, with glutamines in place of Gluex (E148), Gluin (E203) and E113; The final crystallographic model holds all residues except those of helix A (no density); PDB 1ots is the wild-type parent used as search model; also called QQQ protein) MKTDTPSLETPQAARLRRRQLIRQLLERDKTPLAILFMAAVVGTLVGLAAVAFDKGVAWLQNQRMGALVHTADNYPLLLTVAFLCSAVLAMFGYFLVRKYAPEAGGSGIPEIQGALEDQRPVRWWRVLPVKFFGGLGTLGGGMVLGRQGPTVQIGGNIGRMVLDIFRLKGDEARHTLLATGAAAGLAAAFNAPLAGILFIIEQMRPQFRYTLISIKAVFIGVIMSTIMYRIFNHEVALIDVGKLSDAPLNTLWLYLILGIIFGIFGPIFNKWVLGMQDLLHRVHGGNITKWVLMGGAIGGLCGLLGFVAPATSGGGFNLIPIATAGNFSMGMLVFIFVARVITTLLCFSSGAPGGIFAPMLALGTVLGTAFGMVAVELFPQYHLEAGTFAIAGMGALLAASIRAPLTGIILVLEMTDNYQLILPMIITGLGATLLAQFTGGKPLYSAILARTLAKQEAEQLARSK", "values": [{"measurement": "binding result", "value": "binds"}]}]}
